Measured values published in the Human Domainome abundance scans (Beltran et al. 2025).
± gives the uncertainty stated by the source.

B1: POU domain, class 2, transcription factor 1, residues 285 to 354; numbered along this chain, P14859 (parent)
chain: LEELEQFAKTFKQRRIKLGFTQGDVGLAMGKLYGNDFSQTTISRFEALNLSFKNMCKLKPLLEKWLNDAE

Variants of: B1
Test: abundance fitness (aPCA) (normalised: wild type 0, dead -1); higher = more abundant; growth selection in yeast, the domain comes from the species named
Conditions: Homo sapiens

LEELEQFAKTFKQRRIKLGFTQGDVGLAMGKLYGDDFSQTTISRFEALNLSFKNMCKLKPLLEKWLNDAE and LEELEQFAKTFKQRRIKLGFTQGDVGLAMGKLYGSDFSQTTISRFEALNLSFKNMCKLKPLLEKWLNDAE are within error of each other in abundance fitness: 0.035 ± 0.042 for the first, -0.038 ± 0.086 for the second.

LEELEQFAKTFKQRRIKLGFTQGDVGLAMGKLWGNDFSQTTISRFEALNLSFKNMCKLKPLLEKWLNDAE and LEELEQFAKTFKQRRIKLGFTQGDVGLAMGKLTGNDFSQTTISRFEALNLSFKNMCKLKPLLEKWLNDAE are within error of each other in abundance fitness: -0.122 ± 0.086 for the first, -0.061 ± 0.024 for the second.

LEELEQFAKTFKQRRIKLGFTQGDVGLAMGKLVGNDFSQTTISRFEALNLSFKNMCKLKPLLEKWLNDAE and LEELEQFAKTFKQRRIKLGFTQGDVGLAMGKLYDNDFSQTTISRFEALNLSFKNMCKLKPLLEKWLNDAE are within error of each other in abundance fitness: -0.151 ± 0.06 for the first, -0.036 ± 0.096 for the second.

LEELEQFAKTFKQRRIKLGFTQGDVGLAMGKLYANDFSQTTISRFEALNLSFKNMCKLKPLLEKWLNDAE and LEELEQFAKTFKQRRIKLGFTQGDVGLAMGKLYKNDFSQTTISRFEALNLSFKNMCKLKPLLEKWLNDAE are within error of each other in abundance fitness: -0.027 ± 0.025 for the first, -0.039 ± 0.042 for the second.

First: LEELEQFAKTFKQRRIKLGFTQGDVGLAMGKLYPNDFSQTTISRFEALNLSFKNMCKLKPLLEKWLNDAE
Second: LEELEQFAKTFKQRRIKLGFTQGDVGLAMGKLYYNDFSQTTISRFEALNLSFKNMCKLKPLLEKWLNDAE
The abundance fitness of the first is higher: 0 ± 0.029 for the first, -0.165 ± 0.12 for the second.

LEELEQFAKTFKQRRIKLGFTQGDVGLAMGKLYINDFSQTTISRFEALNLSFKNMCKLKPLLEKWLNDAE and LEELEQFAKTFKQRRIKLGFTQGDVGLAMGKLYTNDFSQTTISRFEALNLSFKNMCKLKPLLEKWLNDAE are within error of each other in abundance fitness: -0.189 ± 0.12 for the first, -0.16 ± 0.04 for the second.

Compared with LEELEQFAKTFKQRRIKLGFTQGDVGLAMGKLYRNDFSQTTISRFEALNLSFKNMCKLKPLLEKWLNDAE, LEELEQFAKTFKQRRIKLGFTQGDVGLAMGKLYWNDFSQTTISRFEALNLSFKNMCKLKPLLEKWLNDAE is lower in abundance fitness: -0.027 ± 0.026 for the first, -0.301 ± 0.034 for the second.

Compared with LEELEQFAKTFKQRRIKLGFTQGDVGLAMGKLYCNDFSQTTISRFEALNLSFKNMCKLKPLLEKWLNDAE, LEELEQFAKTFKQRRIKLGFTQGDVGLAMGKLYVNDFSQTTISRFEALNLSFKNMCKLKPLLEKWLNDAE is lower in abundance fitness: -0.023 ± 0.081 for the first, -0.164 ± 0.026 for the second.

LEELEQFAKTFKQRRIKLGFTQGDVGLAMGKLYLNDFSQTTISRFEALNLSFKNMCKLKPLLEKWLNDAE and LEELEQFAKTFKQRRIKLGFTQGDVGLAMGKLYHNDFSQTTISRFEALNLSFKNMCKLKPLLEKWLNDAE are within error of each other in abundance fitness: -0.151 ± 0.019 for the first, -0.097 ± 0.075 for the second.

Compared with LEELEQFAKTFKQRRIKLGFTQGDVGLAMGKLYENDFSQTTISRFEALNLSFKNMCKLKPLLEKWLNDAE, LEELEQFAKTFKQRRIKLGFTQGDVGLAMGKLYSNDFSQTTISRFEALNLSFKNMCKLKPLLEKWLNDAE is lower in abundance fitness: -0.01 ± 0.028 for the first, -0.1 ± 0.026 for the second.

First: LEELEQFAKTFKQRRIKLGFTQGDVGLAMGKLYNNDFSQTTISRFEALNLSFKNMCKLKPLLEKWLNDAE
Second: LEELEQFAKTFKQRRIKLGFTQGDVGLAMGKLYFNDFSQTTISRFEALNLSFKNMCKLKPLLEKWLNDAE
The abundance fitness of the first is higher: -0.041 ± 0.1 for the first, -0.276 ± 0.1 for the second.

LEELEQFAKTFKQRRIKLGFTQGDVGLAMGKLYGNDVSQTTISRFEALNLSFKNMCKLKPLLEKWLNDAE and LEELEQFAKTFKQRRIKLGFTQGDVGLAMGKLYGNDISQTTISRFEALNLSFKNMCKLKPLLEKWLNDAE are within error of each other in abundance fitness: 0.038 ± 0.029 for the first, -0.011 ± 0.035 for the second.

LEELEQFAKTFKQRRIKLGFTQGDVGLAMGKLYGNDKSQTTISRFEALNLSFKNMCKLKPLLEKWLNDAE and LEELEQFAKTFKQRRIKLGFTQGDVGLAMGKLYGNDGSQTTISRFEALNLSFKNMCKLKPLLEKWLNDAE are within error of each other in abundance fitness: -0.184 ± 0.048 for the first, -0.211 ± 0.027 for the second.

First: LEELEQFAKTFKQRRIKLGFTQGDVGLAMGKLYGNDCSQTTISRFEALNLSFKNMCKLKPLLEKWLNDAE
Second: LEELEQFAKTFKQRRIKLGFTQGDVGLAMGKLYGNDPSQTTISRFEALNLSFKNMCKLKPLLEKWLNDAE
The abundance fitness of the first is higher: 0.028 ± 0.046 for the first, -0.148 ± 0.02 for the second.

LEELEQFAKTFKQRRIKLGFTQGDVGLAMGKLYGNDTSQTTISRFEALNLSFKNMCKLKPLLEKWLNDAE and LEELEQFAKTFKQRRIKLGFTQGDVGLAMGKLYGNDASQTTISRFEALNLSFKNMCKLKPLLEKWLNDAE are within error of each other in abundance fitness: -0.059 ± 0.027 for the first, -0.081 ± 0.033 for the second.

LEELEQFAKTFKQRRIKLGFTQGDVGLAMGKLYGNDNSQTTISRFEALNLSFKNMCKLKPLLEKWLNDAE and LEELEQFAKTFKQRRIKLGFTQGDVGLAMGKLYGNDRSQTTISRFEALNLSFKNMCKLKPLLEKWLNDAE are within error of each other in abundance fitness: -0.337 ± 0.068 for the first, -0.355 ± 0.032 for the second.

LEELEQFAKTFKQRRIKLGFTQGDVGLAMGKLYGNDQSQTTISRFEALNLSFKNMCKLKPLLEKWLNDAE and LEELEQFAKTFKQRRIKLGFTQGDVGLAMGKLYGNDESQTTISRFEALNLSFKNMCKLKPLLEKWLNDAE are within error of each other in abundance fitness: -0.214 ± 0.036 for the first, -0.199 ± 0.075 for the second.

LEELEQFAKTFKQRRIKLGFTQGDVGLAMGKLYGNDYSQTTISRFEALNLSFKNMCKLKPLLEKWLNDAE and LEELEQFAKTFKQRRIKLGFTQGDVGLAMGKLYGNDDSQTTISRFEALNLSFKNMCKLKPLLEKWLNDAE are within error of each other in abundance fitness: -0.135 ± 0.068 for the first, 0.006 ± 0.14 for the second.

Compared with LEELEQFAKTFKQRRIKLGFTQGDVGLAMGKLYGNDSSQTTISRFEALNLSFKNMCKLKPLLEKWLNDAE, LEELEQFAKTFKQRRIKLGFTQGDVGLAMGKLYGNDLSQTTISRFEALNLSFKNMCKLKPLLEKWLNDAE is higher in abundance fitness: -0.119 ± 0.021 for the first, -0.003 ± 0.017 for the second.

With LEELEQFAKTFKQRRIKLGFTQGDVGLAMGKLYGNDMSQTTISRFEALNLSFKNMCKLKPLLEKWLNDAE the abundance fitness was -0.011 ± 0.028.
